{"source": "patent US11578136B2", "about": "“Compositions and methods for treating cancer” (INNATE PHARMA, priority 2017, dated 2023)", "key": {"[1]": {"system": "cynomolgus CD39-expressing CHO cells (CHO-cyCD39)", "assay": "Inhibition of the enzymatic activity of cellular CD39 in CHO-cyCD39", "type": "cell-based, cynomolgus (Macaca fascicularis)", "details": "result in words", "protocol": "(§1) The inhibition of the CD39 enzymatic activity in CD39-expressing cells by antibodies was evaluated using Cell Titer Glo™ (Promega, reference G7571) that allows assessment of ATP hydrolysis through use of a reagent that generates a luminescent signal proportional to the amount of ATP present. The assay was thus designed to permit assessment of the inhibition of ATP hydrolyzed by CD39 in the cell culture supernatant. Briefly, 5×10^4 Ramos human lymphoma cells, 5×10^3 human CD39-, cynomolgus CD39- and mouse CD39-expressing CHO cells, were incubated 1 hour at 37° C. with anti-CD39 antibodies from 30 μg/ml to […]. Cells were then incubated with 20 μM ATP for 1 additional hour at 37° C. Plates were centrifuged for 2 min at 400 g and 50 μl cell supernatant are transferred in a luminescence microplate (white wells). 50 μl CellTiter-Glo® Reagent (CTG) was added to the supernatant and emitted light was quantified after a 5 min incubation in the dark using a Enspire™ luminometer. Anti-CD39 antibody efficacy was determined by comparing emitted light in presence of antibody with ATP alone (maximal light emission) and ATP together with cells (minimal light emission).\nThe inhibition by antibody I-394 of the ATPase activity of CD39 in CD39-expressing cells was evaluated using the assay used for inhibition of the enzymatic activity of cellular CD39 as described above (Methods)."}, "[2]": {"molecular_target": "T1, Human CD39-L1 (NTPDase2, ENTPD2) (Homo sapiens, UniProt Q9Y5L3)", "T1 sequence (Q9Y5L3 1-472 isoform Q9Y5L3-2)": "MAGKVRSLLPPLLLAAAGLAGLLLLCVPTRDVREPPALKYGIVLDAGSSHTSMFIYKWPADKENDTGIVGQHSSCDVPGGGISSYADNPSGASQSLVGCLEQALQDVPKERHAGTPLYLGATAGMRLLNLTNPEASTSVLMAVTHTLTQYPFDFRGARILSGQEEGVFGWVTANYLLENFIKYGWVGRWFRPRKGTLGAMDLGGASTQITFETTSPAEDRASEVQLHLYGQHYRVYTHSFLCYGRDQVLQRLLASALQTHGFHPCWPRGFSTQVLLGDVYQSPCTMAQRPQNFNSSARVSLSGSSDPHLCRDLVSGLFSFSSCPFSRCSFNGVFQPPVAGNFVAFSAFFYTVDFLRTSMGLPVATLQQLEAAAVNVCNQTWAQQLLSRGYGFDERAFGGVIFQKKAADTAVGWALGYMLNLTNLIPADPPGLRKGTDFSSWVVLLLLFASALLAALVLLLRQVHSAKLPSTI", "assay": "ELISA titration on CD39-L1", "type": "binding", "details": "result in words", "protocol": "(§2) Antibody I-394 was tested for binding to recombinant human CD39 isoforms (Rec-huCD39 isoforms) having amino acid sequences shown below were coated in 96-well plate in PBS 1× at 500 ng/ml or 1 μg/ml at 4° C. overnight. Wells were washed in TBS Tween 20, and further saturated 2H at RT in TBS Blocking buffer. Dose range concentration of primary antibody was incubated in TBS blocking buffer for 2 h at RT. Wells were washed in TBS Tween 20. […] Optical density was measured on Enspire™ at OD=450."}, "[3]": {"molecular_target": "T2, human CD39 (vascular isoform) (Homo sapiens, UniProt P49961)", "T2 sequence (P49961 1-510)": "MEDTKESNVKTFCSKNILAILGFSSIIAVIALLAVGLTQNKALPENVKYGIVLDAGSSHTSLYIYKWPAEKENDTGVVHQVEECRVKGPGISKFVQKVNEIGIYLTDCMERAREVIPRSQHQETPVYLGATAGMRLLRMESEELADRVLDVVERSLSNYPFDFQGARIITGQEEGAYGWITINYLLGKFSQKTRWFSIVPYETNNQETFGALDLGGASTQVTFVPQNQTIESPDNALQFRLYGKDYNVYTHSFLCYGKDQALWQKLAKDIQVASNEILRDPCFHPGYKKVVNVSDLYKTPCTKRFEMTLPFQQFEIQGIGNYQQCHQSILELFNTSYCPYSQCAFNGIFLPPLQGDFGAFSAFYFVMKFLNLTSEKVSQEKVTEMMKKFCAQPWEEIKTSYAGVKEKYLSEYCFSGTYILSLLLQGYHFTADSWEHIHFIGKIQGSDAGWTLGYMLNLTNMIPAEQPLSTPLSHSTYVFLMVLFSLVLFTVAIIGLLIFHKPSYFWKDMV", "assay": "ELISA titration on recombinant human CD39", "type": "binding", "details": "result in words", "protocol": "as §2"}, "cell-membrane bound CD39": {"molecular_target": "T3, cell-membrane bound CD39 (Homo sapiens, UniProt P49961)", "T3 sequence (P49961 1-510)": "T2 sequence (P49961 1-510)", "assay": "Inhibition of the enzymatic activity of cellular CD39 (cells not specified)", "type": "cell-based", "protocol": "as §1\nThe two antibodies that have been reported to inhibit the ATPase activity of CD39 in cellular assays (BY40 and BY12) were assessed to determine whether are able to inhibit the ATPase activity of recombinant soluble CD39 protein. […]"}}}
{"substance": "I-394: anti-CD39 antibody, VH SEQ ID NO: 6, VL SEQ ID NO: 7; human IgG1 Fc with L234A/L235E/G237A/A330S/P331S", "values": [{"measurement": "blocking CD39 enzymatic activity in CHO-cyCD39", "setting": "[1]", "result": "blocks"}, {"measurement": "binding to CD39-L1 in ELISA", "setting": "[2]", "result": "not"}, {"measurement": "binding to CD39 in ELISA", "setting": "[3]", "result": "bound"}, {"measurement": "potency and maximal inhibition of cellular CD39 compared to BY40 (FIG. 2A)", "setting": "cell-membrane bound CD39; compared to BY40", "result": "greater potency and maximal inhibition"}, {"measurement": "inhibition of ATPase activity of CD39 protein in cells / cell-membrane bound CD39", "setting": "cell-membrane bound CD39; result in words", "result": "inhibit"}]}
